Laboratory results taken from patent US8877469B2, “Method of drying biological material” (Enwave Corporation, priority 2004, dated 2014).

Tests used:
[1] = system: Micrococcus luteus cell wall suspension; experiment: Lysozyme activity, turbidity assay; assay type: biochemical; details: lysozyme-chitosan 1:3 pastes; for lysozyme enzymatic activity after drying: t-REV 300 Watts, 30 Torr, 10 min
Experimental: Lysozyme activity was determined by the turbidity assay method using freeze-dried Micrococcus luteus cell wall suspension.

[2] = cited from earlier work
[3] = Water activity (Aqua lab water activity meter); assay type: physicochemical; details: REV, 10% SMP, 10 Torr (200 W)
Experimental: (§1) The puffed foam material was removed from the drier and packed in polyethylene bags. The final moisture content and water activity of the dried foams were measured after 24 hours of drying (allow the sample to equilibrate) using air oven method and Aqua lab water activity meter (model series 3, Decagon Device Inc., Washington, USA).
as §1, with “structure” for “material”
The water activity of the samples before microwave vacuum drying, immediately after drying and during storage was measured (Aqualab R Model series 3, Decagon Devices, Inc., Washington, USA).

| Substance | increase in lysozyme activity after t-REV ([1]; before versus after t-REV) | lysozyme enzymatic activity after drying [1] | lysozyme enzymatic activity after drying ([1]; listed as Lysozyme) | retention during pelleting ([2]; encapsulated with hydrogenated vegetable oil and calcium stearate) | loss after the feed pelleting process ([2]; unprotected lysozyme, pelleting at 195° F.) | aw [3] |
| --- | --- | --- | --- | --- | --- | --- |
| lysozyme: Lysozyme extracted from chicken egg-white (Neova Technologies Inc.) | about 10% | no enzymatic activity loss | retained its activity | up to 75% | More than 50% |  |
| Bifidobacterium longum |  |  |  |  |  | 0.36 ± 0.01 |
